Drawing on US20060057652A1, this text covers percent of wild-type killing activity (apoptotic morphology, H1299 cells) (percent of wild-type killing activity) for two substances.

The test deals with anaphase promoting complex subunit 1 (APC1) (Homo sapiens) (UniProt Q9H1A4). Kind of test: cell-based or functional assay.
anaphase promoting complex subunit 1 (APC1) (Homo sapiens), sequence (Q9H1A4 whole entry, one chain of several): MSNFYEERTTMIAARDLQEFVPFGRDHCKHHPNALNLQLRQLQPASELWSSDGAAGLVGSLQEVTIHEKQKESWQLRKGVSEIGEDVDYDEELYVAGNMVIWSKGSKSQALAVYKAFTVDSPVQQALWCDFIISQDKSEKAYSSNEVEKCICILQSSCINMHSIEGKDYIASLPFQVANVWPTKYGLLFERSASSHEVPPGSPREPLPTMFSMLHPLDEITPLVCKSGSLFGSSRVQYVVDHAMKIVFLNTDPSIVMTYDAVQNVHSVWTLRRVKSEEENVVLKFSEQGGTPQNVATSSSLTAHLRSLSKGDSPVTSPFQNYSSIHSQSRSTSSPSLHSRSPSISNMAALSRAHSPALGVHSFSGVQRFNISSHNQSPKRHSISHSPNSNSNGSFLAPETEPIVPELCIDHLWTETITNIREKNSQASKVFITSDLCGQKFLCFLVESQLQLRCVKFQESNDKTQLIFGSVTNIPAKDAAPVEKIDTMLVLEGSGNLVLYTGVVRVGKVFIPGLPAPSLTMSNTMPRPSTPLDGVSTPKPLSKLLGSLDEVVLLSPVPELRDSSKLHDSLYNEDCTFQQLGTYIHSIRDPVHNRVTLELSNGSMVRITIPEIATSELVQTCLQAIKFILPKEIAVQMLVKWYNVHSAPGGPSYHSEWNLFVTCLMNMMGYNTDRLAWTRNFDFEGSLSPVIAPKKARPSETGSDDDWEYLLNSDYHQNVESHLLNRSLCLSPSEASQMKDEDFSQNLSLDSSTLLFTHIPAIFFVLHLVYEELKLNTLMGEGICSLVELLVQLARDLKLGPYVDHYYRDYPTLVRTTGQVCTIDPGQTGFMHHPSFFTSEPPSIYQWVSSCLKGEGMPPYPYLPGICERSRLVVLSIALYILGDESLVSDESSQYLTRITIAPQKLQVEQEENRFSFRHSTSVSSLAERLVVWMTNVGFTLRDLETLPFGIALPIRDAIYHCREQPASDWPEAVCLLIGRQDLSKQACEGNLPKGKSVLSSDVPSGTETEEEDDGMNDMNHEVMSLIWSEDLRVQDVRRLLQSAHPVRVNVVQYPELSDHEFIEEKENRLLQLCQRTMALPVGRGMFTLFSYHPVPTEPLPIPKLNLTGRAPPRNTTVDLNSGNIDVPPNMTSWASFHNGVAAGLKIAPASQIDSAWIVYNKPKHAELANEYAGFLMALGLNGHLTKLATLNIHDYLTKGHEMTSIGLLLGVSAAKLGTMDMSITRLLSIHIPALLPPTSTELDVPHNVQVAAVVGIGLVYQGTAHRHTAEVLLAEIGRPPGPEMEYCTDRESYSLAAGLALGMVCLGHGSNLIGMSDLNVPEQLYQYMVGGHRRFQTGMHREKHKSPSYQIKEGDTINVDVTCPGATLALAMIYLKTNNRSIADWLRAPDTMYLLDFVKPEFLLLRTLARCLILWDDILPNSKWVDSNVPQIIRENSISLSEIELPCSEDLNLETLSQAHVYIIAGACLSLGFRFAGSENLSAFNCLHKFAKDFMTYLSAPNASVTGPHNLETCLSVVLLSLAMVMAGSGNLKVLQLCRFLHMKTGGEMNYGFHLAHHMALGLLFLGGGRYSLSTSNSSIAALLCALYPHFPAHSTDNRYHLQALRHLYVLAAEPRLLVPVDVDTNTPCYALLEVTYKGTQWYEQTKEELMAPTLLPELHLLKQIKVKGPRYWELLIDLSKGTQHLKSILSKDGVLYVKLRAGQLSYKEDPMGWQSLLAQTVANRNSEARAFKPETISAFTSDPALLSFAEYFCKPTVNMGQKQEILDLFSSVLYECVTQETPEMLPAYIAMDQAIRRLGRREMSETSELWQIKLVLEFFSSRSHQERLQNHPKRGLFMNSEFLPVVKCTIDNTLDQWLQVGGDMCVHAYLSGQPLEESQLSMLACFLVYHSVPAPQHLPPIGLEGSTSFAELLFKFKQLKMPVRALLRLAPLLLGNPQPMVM

For “GFP-Ap(82-121) (from UniProt Q99152 82-121)”, the percent of wild-type killing activity (apoptotic morphology, H1299 cells) (percent of wild-type killing activity) was 55. With “GFP-Ap(42-121) (from UniProt Q99152 42-121)”, the percent of wild-type killing activity (apoptotic morphology, H1299 cells) (percent of wild-type killing activity) came out at 67.
